According to IntAct's records for PubMed 19800331:

B1: BAG family molecular chaperone regulator 1 (Homo sapiens), Q99933 (parent)
chain: MAQRGGARRPRGDRERLGSRLRALRPGREPRQSEPPAQRGPPPSGRPPARSTASGHDRPTRGAAAGARRPRMKKKTRRRSTRSEELTRSEELTLSEEATWSEEATQSEEATQGEEMNRSQEVTRDEESTRSEEVTREEMAAAGLTVTVTHSNEKHDLHVTSQQGSSEPVVQDLAQVVEEVIGVPQSFQKLIFKGKSLKEMETPLSALGIQDGCRVMLIGKKNSPQEEVELKKLKHLEKSVEKIADQLEELNKELTGIQQGFLPKDLQAEALCKLDRRVKATIEQFMKILEEIDTLILPENFKDSRLKRKGLVKKVQAFLAECDTVEQNICQETERLQSTNFALAE

Variants of: B1
Settings: with hsp7c_human HSPA8, P11142
Sequence of hsp7c_human HSPA8, P11142 (P11142 whole entry, looked up): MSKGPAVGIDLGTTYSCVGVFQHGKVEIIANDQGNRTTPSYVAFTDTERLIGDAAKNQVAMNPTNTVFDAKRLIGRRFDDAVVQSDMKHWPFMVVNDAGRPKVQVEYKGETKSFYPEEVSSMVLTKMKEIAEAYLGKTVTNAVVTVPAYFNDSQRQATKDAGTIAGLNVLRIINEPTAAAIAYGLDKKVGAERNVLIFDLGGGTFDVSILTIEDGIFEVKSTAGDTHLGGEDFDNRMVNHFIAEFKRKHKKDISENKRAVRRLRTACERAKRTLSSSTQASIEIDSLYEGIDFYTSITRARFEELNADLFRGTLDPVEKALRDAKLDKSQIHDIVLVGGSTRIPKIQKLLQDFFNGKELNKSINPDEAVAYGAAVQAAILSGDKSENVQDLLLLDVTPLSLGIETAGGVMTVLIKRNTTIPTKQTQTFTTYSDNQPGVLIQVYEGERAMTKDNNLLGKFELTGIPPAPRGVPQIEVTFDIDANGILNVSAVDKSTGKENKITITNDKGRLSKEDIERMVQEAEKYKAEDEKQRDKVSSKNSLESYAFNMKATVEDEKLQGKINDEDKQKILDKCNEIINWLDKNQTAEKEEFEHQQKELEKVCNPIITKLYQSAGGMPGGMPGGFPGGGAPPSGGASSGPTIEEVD

Row | Variant | effect of a mutation on the interaction
1 | K309A | decreasing interaction

Variants of: B1
Settings: with hsp7c_human HSPA8, P11142
Remark: another data set of the same source

Row | Variant | effect of a mutation on the interaction
2 | R308A | decreasing interaction
